In patent US20080138352A1 (INSTITUT PASTEUR, published 2008):

Target: the molecule itself
Assay: size exclusion chromatography, Superdex 75, pH 6.0 (self-association, homodimer)

B1: recombinant Trypanosoma cruzi proline racemase TcPRACA (rTcPRACA), C-terminal His6-tagged (enzyme)
chain: GQEKLLFDQKYKIIKGEKKEKKKNQRANRREHQQKREIMRFKKSFTCIDMHTEGEAARIVTSGLPHIPGSNMAEKKAYLQENMDYLRRGIMLEPRGHDDMFGAFLFDPIEEGADLGMVFMDTGGYLNMCGHNSIAAVTAAVETGIVSVPAKATNVPVVLDTPAGLVRGTAHLQSGTESEVSNASIINVPSFLYQQDVVVVLPKPYGEVRVDIAFGGNFFAIVPAEQLGIDISVQNLSRLQEAGELLRTEINRSVKVQHPQLPHINTVDCVEIYGPPTNPEANYKNVVIFGNRQADRSPCGTGTSAKMATLYAKGQLRIGETFVYESILGSLFQGRVLGEERIPGVKVPVTKDAEEGMLVVTAEITGKAFIMGFNTMLFDPTDPFKNGFTLKQ
notes: the entry below describes its self-association into a homodimer; also called TcPA45; not shown: C-terminal six-histidine tag from pET28b(+)
B1: binds.
